# Source: patent publication US20250346669A1
# Target: CD3 on CD3 expressing Jurkat cells (UniProt P07766)
# Experiment: flow cytometry on CD3 expressing Jurkat cells; concentration of half maximal binding
row,EC50,Substance
1,0.3 nM,OKT3 (IgG version of the monospecific anti-CD3 antibody)
2,23.7 nM,OKT3 Fab fragment
3,0.6 nM,UCHT1 (IgG version of the monospecific anti-CD3 antibody)
4,0.6 nM,UCHT1 Fab fragment
